In US8252737B2, “Antimicrobial peptides and methods of use” (priority 2004, dated 2012):
Square brackets hold non-standard residues; d marks the D form. Ends that are not written are not given here.

Columns and labels:
[1] = Circular dichroism spectroscopy of helical structure (benign buffer and 50% TFE); format: physicochemical; details: 25° C.; for % helix 50% TFE / % helix Benign: relative to NAL in 50% TFE; for [θ]222 Benign: benign buffer (100 mM KCl, 50 mM PO4 pH 7.0); for [θ]222 50% TFE: benign buffer diluted 1:1 (v/v) with TFE; for % helix Benign: benign buffer
Description: To determine the secondary structure of peptides in different environments, circular dichroism (CD) spectra of the peptide analogs were measured under physiologically related pH and ionic strength (100 mM KCl, 50 mM aq. PO4, pH 7 referred to as benign conditions) and also in 50% TFE to mimic the hydrophobic environment of the membrane. […] On the non-polar face, the native L-Val residue was critical in maintaining α-helical structure. […] Even the substitution with L-Ala, which is known to have the highest α-helical propensity of all 20 amino acids (34), could not stabilize the α-helical structure. […] It is noteworthy that, on the non-polar face, the magnitude of the helical content of L-peptides in benign buffer was related to the hydrophobicity of the substituting amino acids, i.e., NLL>NVL>NAL>NSL, NKL, again showing the importance of hydrophobicity on the non-polar face in maintaining the α-helical structure. […] However, whether L- or D-substitutions were made on the non-polar face, high helical structure could be induced by the hydrophobic environment of 50% TFE, a mimic of the membrane's hydrophobicity and α-helix inducing ability (Table 3).
To determine the secondary structure of the D-enantiomeric peptides in different environments, CD spectra of the peptide analogs were measured under benign conditions (100 mM KCl, 50 mM KH2PO4/K2HPO4, pH 7.4, referred to as KP buffer) and also in 50% trifluoroethanol (TFE) to mimic the hydrophobic environment of the membrane. […] However, in the presence of 50% TFE, all three L-peptides were fully folded α-helical structures with similar ellipticities and helicity (Table 4).
Characterization of Helical Structure—The mean residue molar ellipticities of peptides were determined by circular dichroism (CD) spectroscopy, using a Jasco J-720 spectropolarimeter (Jasco, Easton, Md.), at 25° C. under benign conditions (50 mM KH2PO4/K2HPO4/100 mM KCl, pH 7), as well as in the presence of an α-helix inducing solvent, 2,2,2-trifluoroethanol (TFE) (50 mM KH2PO4/K2HPO4/100 mM KCl, pH 7 buffer/50% TFE). A 10-fold dilution of a ˜500 μM stock solution of the peptide analogs was loaded into a 0.02 cm fused silica cell and its ellipticity scanned from 190 to 250 nm. The values of molar ellipticities of the peptide analogs at a wavelength of 222 nm were used to estimate the relative α-helicity of the peptides.

[2] = RP-HPLC temperature profiling (hydrophobicity and self-association/dimerization parameter PA); format: physicochemical; details: for tR (min) 5° C.: RP-HPLC retention time at 5° C. during temperature profiling (measure of hydrophobicity); for tR (min) 80° C.: RP-HPLC retention time at 80° C. during temperature profiling; for tR (min) Max: maximal RP-HPLC retention time during temperature profiling 5-80° C.; for PA (min) association parameter: maximal retention time difference relative to control peptide C within 5-80° C.; for ΔtR (X-PSL) (min) 5° C. / ΔtR (X-PSL) (min) 80° C. / overall hydrophobicity change relative to PVL: polar face substitutions; for ΔtR (X-PSL) (min) 5° C.: retention time difference relative to native peptide V681 (PSL) at 5° C.; for ΔtR (X-PSL) (min) 80° C.: retention time difference relative to native peptide V681 (PSL) at 80° C.; for overall hydrophobicity change relative to PVL: RP-HPLC retention time difference at 80° C.
Description: The retention time data for the peptides is shown in Table 5 which records retention times at 5° C., the maximal retention times and retention times at 80° C. during the temperature profiling. Temperatures of 5° C. and 80° C. were the lower and upper temperature limits of temperature profiling in RP-HPLC, representing dimerization of the peptides at 5° C. and the monomerization of peptides at 80° C. due to dissociation of the dimers. The maximal retention times represent the threshold points at which peptides transform from dimeric to monomeric form. Among the non-polar face substituted peptides, peptides with more hydrophobic substitutions (whether L- or D-amino acid substitutions) were more retained during RP-HPLC, i.e., peptides were eluted in the order of Lys, Gly, Ser, Ala, Val and Leu (Table 5). In addition, on the non-polar face, the L-analogs were always more retained than the D-diastereomers (Table 5, FIG. 5). […] In contrast, on the polar face, the elution order of peptides was not correlated with the order of amino acid side-chain hydrophobicity, e.g., PAL and PSL were more retained than PVL (Table 5); PSD was the most retained peptide among the D-amino acid substituted analogs on the polar face (Table 5).
The ability of the D-peptides to self-associate was determined by RP-HPLC temperature profiling. […] As expected, L- and D-peptide enantiomers were totally inseparable over this temperature range, since each pair of peptides is identical in sequence and must adopt identical conformations on interacting with the reversed-phase matrix, whether in an all-L- or all-D-conformation. RP-HPLC retention behavior has been frequently utilized to represent overall peptide hydrophobicity (53, 26). In the present study, the hydrophobicity of the three peptide pairs is in the order V681/D-V681>[…]>NKL/D-NKD (Table 4), which agrees with the change in hydrophobicity of the substitutions at position 13 in order of the most hydrophobic to the least hydrophobic amino acid residue (Val in V681>Ala in NA>Lys in NK) (54). […] For example, the retention times of peptides V681/D-V681 increase with increasing temperature (up to ˜30° C.) followed by a retention time decrease with a further temperature increase. […] Since peptide C is a monomeric random coil peptide in both aqueous and hydrophobic media, its retention behavior over the temperature range 5° C. to 80° C. represents only general temperature effects on peptide retention behavior, i.e., a linear decrease in peptide retention time with increasing temperature due to greater solute diffusivity and enhanced mass transfer between the stationary and mobile phases at higher temperatures (55). Thus, after normalization to the retention times of peptide C, the retention behavior of the peptides represents only peptide self-association ability. Note that the higher the PA value, the greater the self-association ability. […] From Table 4, it is also clear that the peptide retention times at 80° C. are dramatically lower than those at 5° C.
Elution times during RP-HPLC have frequently been utilized as a measure of relative hydrophobicity of peptide analogs (26, 31). In the current study, peptide analogs differed only by a single amino acid substitution on either the non-polar face or the polar face of V681; thus, the retention time data in Table 5 can be considered to reflect the hydrophobicity difference between peptide analogs. In order to more easily visualize the variation in hydrophobicity of the peptide analogs, the retention time data in Table 5 were normalized relative to that of the native peptide V681 at 5° C. and 80° C., respectively. Hydrophobicity relative to the native peptide V681 indicates an increase or decrease of the apparent peptide hydrophobicity with the different amino acid substitutions on the polar or non-polar face. […]

Substance	% helix 50% TFE [1] [%]	[θ]222 Benign [1]	[θ]222 50% TFE [1]	% helix Benign [1] [%]	tR (min) 5° C. [2] [min]	tR (min) 80° C. [2] [min]	tR (min) Max [2] [min]	PA (min) association parameter [2] [min]	ΔtR (X-PSL) (min) 5° C. ([2]; relative hydrophobicity) [min]	ΔtR (X-PSL) (min) 80° C. ([2]; relative hydrophobicity) [min]	overall hydrophobicity change relative to PVL [2]	ΔtR (X-NVL) (min) 5° C. ([2]; non-polar face substitutions, retention time difference relative to native peptide V681 (NVL) at 5° C., relative hydrophobicity) [min]	ΔtR (X-NVL) (min) 80° C. ([2]; non-polar face substitutions, retention time difference relative to native peptide V681 (NVL) at 80° C., relative hydrophobicity) [min]
PLL: V681 analog with L-Leu at position 11 (polar face) (KWKSFLKTFKLAVKTVLHTALKAISS)	99	−10,850 deg · cm^2 · dmol^−1	−28,550 deg · cm^2 · dmol^−1	37	48.78	47.51	51.23	4.33	0.68	1.68	–	–	–
PKL: V681 analog with L-Lys at position 11 (polar face) (KWKSFLKTFKKAVKTVLHTALKAISS)	94	−5,950 deg · cm^2 · dmol^−1	−27,350 deg · cm^2 · dmol^−1	21	46.38	43.89	47.90	3.17	-1.72	-1.94	-2.29 min	–	–
PAL: V681 analog with L-Ala at position 11 (polar face) (KWKSFLKTFKAAVKTVLHTALKAISS)	95	−13,600 deg · cm^2 · dmol^−1	−27,600 deg · cm^2 · dmol^−1	47	48.25	46.63	50.57	4.15	0.15	0.80	+0.45 min	–	–
NLD: V681 analog with D-Leu at position 13 (non-polar face) (KWKSFLKTFKSA[dL]KTVLHTALKAISS-NH2; not fully specified)	89	−7,350 deg · cm^2 · dmol^−1	−25,750 deg · cm^2 · dmol^−1	25	45.10	43.03	46.37	3.02	–	–	–	-3.00	-2.80
